No end group written: not given here.

In one assay the target is apelin (UniProt Q9ULZ1 65-77, limits assumed). Description: cell-based or functional assay.
In a further assay the target is T1, apelin 12 (UniProt Q9ULZ1 66-77).
T1 construct: domain: apelin 12
T1 peptide (looked up): RPRLSHKGPMPF
The experiment in a line: BIAcore solution equilibrium binding: Ab A pre-incubated with apelin 12, injected over immobilised biotin-labeled apelin; one-site homogeneous model. As for the experimental part:
Binding affinity of Ab A was determined using BIAcore solution equilibrium binding analysis. Briefly, biotin-labeled apelin was immobilized at high density on a neutravidin surface. Ab A was incubated with apelin 12 at RT for over 4 hours before injected over the immobilized surfaces. The dissociation equilibrium constant (Kd) was obtained from a nonlinear regression analysis of the competition curve using a one-site homogeneous binding model (KinExATM Pro software).
A general note: In SPR one partner is held on a chip, and binding of the other changes the refractive index at the surface.

A further assay addresses T2, apelin 12-2 (also: biotinylated, position not given here).
T2 construct: also called peptide 11
T2 peptide: RPRLSHKGPMP
The experiment in a line: ELISA: biotinylated peptide captured on neutravidin plate, antibody detected with HRP goat anti-mouse Fc, OD650; one point per peptide, antibody concentration not given. As for the experimental part:
(§1) The antibody binding site was mapped using an ELISA-based assay. Briefly, various biotinylated apelin peptides (SEQ ID NOs: 7-22) were captured onto neutravidin coated plates and incubated with apelin antibody. Bound antibody was detected with horseradish peroxidase-conjugated goat anti-mouse Fc in the presence of the chromogenic substrate. The absorbance was read at 650 nm. Ab A is believed to neutralize all active forms of apelin.
On the technique in general: In an ELISA, binding on a coated surface is turned into a signal by an enzyme label.

For another assay, the target named is T3, apelin 12-3 (also: biotinylated, position not given here).
T3 construct: also called peptide 12
T3 peptide: RPRLSHKGPM
The assay is described as above. As for the experimental part: as §1

For another assay, the target named is T4, apelin 12-4 (also: biotinylated, position not given here).
T4 construct: also called peptide 13
T4 peptide: RPRLSHKGP
The description is as above. As for the experimental part:
as §1

The target of another assay is T5, apelin 12-5 (also: biotinylated, position not given here).
T5 construct: also called peptide 14
T5 peptide: RPRLSHKG
The assay is described as above. As to the method:
as §1

The next assay has as its target T6, pyro13 C-blot (N-terminal pGlu as printed; biotinylated; the sheet prints 'C-blot', meaning not explained).
T6 construct: also called peptide 3
T6 peptide: ERPRLSHKGPMPF
Described as above. As to the method: as §1

The next assay deals with T7, F13A (also: biotinylated, position not given here).
T7 construct: apelin 13 with A in place of the C-terminal F; also called peptide 4
T7 peptide: QRPRLSHKGPMPA
Described as above. As to the method: as §1

For a further assay, the target named is T8, apelin 11 (also: biotinylated, position not given here).
T8 construct: also called peptide 6
T8 peptide: PRLSHKGPMPF
Described as above. As for the experimental part:
as §1

B1: antibody A (Ab A) (antibody, V domains shown)
VH: NVQLVESGGGLVKPGGSLKLSCVASGFIFSDYVMSWVRQTPEKRLEWVATISDGGIYTSYPDNIKGRFTISRDNANNKLYLQMSHLRSEDTAMYFCSRAAITSDDFDFWGQGTALTVSS
VL: DIVMSQSPSSLAVSAGEKVTMSCKSSQSLLDSRTRKNYLAWYQQKPGQSPKLLISWASIRESGVPDRFTGSGSGTDFTLSISSVQAEDLAVYYCKQSYYLLTFGAGTKLELKR
notes: also called apelin antibody; apelin Ab
For B1, the “IC50: inhibition of the apelin-induced change of cAMP (HTRF ratio 665/620) in CHOK1-human APJ cells, 6 nM apelin, 500 nM forskolin” value in the assay with apelin amounted to 18.2 nM. This molecule came in with a Kd with apelin 12 of 6 nM. Also, the binding result with apelin 12-2, with apelin 12-3, in the assay with apelin 12-4, with apelin 12-5, with pyro13 C-blot and with F13A was “binds” throughout. The binding result in the assay with apelin 11 is recorded as “binds”.

The term Kd denotes the free concentration of one partner at which half of the binding sites on the other are occupied at equilibrium, for simple one-to-one binding.

(Values after US20140328850A1 (Amgen, published 2014).)
